# According to patent publication US9724381B2 (THE ADMINISTRATORS OF THE TULANE EDUCATIONAL FUND, priority 2009, dated 2017):
# “And” between values parts separate entries of the source, which are not always exact repeats. Equal entries are not always repeated. Where no end group is shown, it is not given here. [ ]: non-standard residue; d: D form. d1Nal = N[C@H](Cc1cccc2ccccc12)C(=O)O; d2Nal = N[C@H](Cc1ccc2ccccc2c1)C(=O)O; dCha = N[C@H](CC1CCCCC1)C(=O)O; Nle = CCCC[C@H](N)C(=O)O
# Molecular target: Ghrelin/GHRP/GHS Receptor (Rattus norvegicus, UniProt O08725)
# Sequence (O08725 whole entry): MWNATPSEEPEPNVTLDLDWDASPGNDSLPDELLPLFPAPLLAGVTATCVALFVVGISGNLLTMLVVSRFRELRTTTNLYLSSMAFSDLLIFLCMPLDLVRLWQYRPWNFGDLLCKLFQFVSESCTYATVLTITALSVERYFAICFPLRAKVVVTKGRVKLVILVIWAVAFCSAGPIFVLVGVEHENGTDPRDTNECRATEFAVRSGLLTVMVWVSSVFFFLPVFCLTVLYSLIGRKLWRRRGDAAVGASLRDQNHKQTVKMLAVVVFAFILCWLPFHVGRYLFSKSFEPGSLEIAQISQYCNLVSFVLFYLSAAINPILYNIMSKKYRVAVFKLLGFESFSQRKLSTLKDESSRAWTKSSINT
# Assay: In vivo GH release in rat (serum GH by RIA after i.v. peptide)
# Settings: for Unstimulated Basal GH release from rats: Table 5; for Unstimulated Basal GH Release from rat: Table 3; for Stimulated (S) GH release from rats / Unstimulated GH release from rats: Table 4, pentobarbital rats; for Stimulated (S) GH release from rats: P + S, stimulator 1 μg; for Unstimulated GH release from rats: −S
# Procedure: For the in vivo assay of GH Release in rat, immature female Sprague Dawley rats were obtained from Charles River from Wilmington, Mass. After arrival they were housed at 25° C. with a 14:10 h light:dark cycle. Water and Purina rat chow were available at libitum. Pups were weaned at 21 days of age.
# Immature twenty six day old female Sprague Dawley rats, 3-6 rats per treatment dose, were pretreated with pentobarbital 20 minutes before iv injection of vehicle/peptide or peptide plus stimulator. Injection was made as a 0.1 ml solution. For the non-pentobarbital treated rat assay, peptides were administered iv into the tail vein of conscious rats. All animals were sacrificed by guillotine after iv peptide or vehicle. Trunk blood was collected at +10-15 minutes […], allowed to clot, centrifuged and serum stored until assayed for GH levels by RIA. The GH RIA reagents were distributed by the NIH. Control data was collected from rats treated with only the corresponding vehicle in the absence of peptide or stimulator. Control stimulated data was collected from rats treated with stimulator alone in the absence of any peptide.
# [1] = Table 2, peptide antagonist 30 μg i.v. + stimulator DAla-DβNal-Ala-Trp-DPhe-Lys-NH2 0.3 μg
# [2] = Table 2, peptide antagonist 3 μg i.v. + stimulator DAla-DβNal-Ala-Trp-DPhe-Lys-NH2 1 μg
# [3] = Table 2, peptide antagonist 10 μg i.v. + stimulator DAla-DβNal-Ala-Trp-DPhe-Lys-NH2 1 μg
# [4] = Table 2, peptide antagonist 30 μg i.v. + stimulator DAla-DβNal-Ala-Trp-DPhe-Lys-NH2 1 μg
# [5] = Table 2, peptide antagonist 100 μg i.v. + stimulator DAla-DβNal-Ala-Trp-DPhe-Lys-NH2 1 μg
# [6] = peptide antagonist alone 1 μg i.v.
# [7] = peptide antagonist alone 3 μg i.v.
# [8] = peptide antagonist alone 10 μg i.v.
substance,measurement,setting,value
Ala-His-DTrp-DLys-Trp-DPhe-Lys-NH2 (AH[dW][dK]W[dF]K-NH2; N-terminus assumed; SMILES C[C@H](N)C(=O)N[C@@H](Cc1c[nH]cn1)C(=O)N[C@H](Cc1c[nH]c2ccccc12)C(=O)N[C@H](CCCCN)C(=O)N[C@@H](Cc1c[nH]c2ccccc12)C(=O)N[C@H](Cc1ccccc1)C(=O)N[C@@H](CCCCN)C(N)=O),Stimulated GH release from rat,[1],1487 ± 397 ng/mL
Alaψ[CH2NH]-DβNal-Ala-Trp-DPhe-Lys-NH2 (A[d2Nal]AW[dF]K-NH2; also: Ala1-DβNal2 reduced bond ψ[CH2NH]),Stimulated GH release from rat,[2],2771 ± 157 ng/mL
same,Stimulated GH release from rat,[3],2341 ± 416 ng/mL
same,Stimulated GH release from rat,[4],1948 ± 450 ng/mL
same,Stimulated GH release from rat,[5],1639 ± 221 ng/mL
Alaψ[CH2NH]His-DTrp-Ala-Trp-DPhe-Lys-NH2 (AH[dW]AW[dF]K-NH2; also: reduced bond ψ[CH2NH] between Ala1 and His2),Unstimulated Basal GH release from rats,[6],127 ± 32 ng/mL
same,Unstimulated Basal GH release from rats,[7],147 ± 37 ng/mL
DAla-Ala-DAla-DTrp-Phe-Lys-NH2 ([dA]A[dA][dW]FK-NH2; N-terminus assumed; SMILES C[C@H](NC(=O)[C@@H](C)N)C(=O)N[C@H](C)C(=O)N[C@H](Cc1c[nH]c2ccccc12)C(=O)N[C@@H](Cc1ccccc1)C(=O)N[C@@H](CCCCN)C(N)=O),Unstimulated Basal GH release from rats,[8],228 ± 76 ng/mL
same,Unstimulated Basal GH release from rats,peptide antagonist alone 30 μg i.v.,172 ± 14 ng/mL
same,Unstimulated Basal GH release from rats,peptide antagonist alone 100 μg i.v.,153 ± 45 ng/mL
DAla-DcyclohexylAla-Ala-Phe-DPhe-Nle-NH2 ([dA][dCha]AF[dF][Nle]-NH2; N-terminus assumed; SMILES CCCC[C@H](NC(=O)[C@@H](Cc1ccccc1)NC(=O)[C@H](Cc1ccccc1)NC(=O)[C@H](C)NC(=O)[C@@H](CC1CCCCC1)NC(=O)[C@@H](C)N)C(N)=O),Unstimulated Basal GH Release from rat,peptide alone 1 μg i.v.,435 ± 152 ng/mL
same,Unstimulated Basal GH Release from rat,peptide alone 3 μg i.v.,195 ± 34 ng/mL
same,Unstimulated Basal GH Release from rat,peptide alone 10 μg i.v.,250 ± 41 ng/mL
same,Unstimulated Basal GH Release from rat,peptide alone 30 μg i.v.,393 ± 51 ng/mL
same,Unstimulated Basal GH Release from rat,peptide alone 100 μg i.v.,697 ± 75 ng/mL
DAla-DβNal-Ala-Ala-DAla-Lys-NH2 ([dA][d2Nal]AA[dA]K-NH2; N-terminus assumed; SMILES C[C@H](NC(=O)[C@H](C)NC(=O)[C@@H](Cc1ccc2ccccc2c1)NC(=O)[C@@H](C)N)C(=O)N[C@H](C)C(=O)N[C@@H](CCCCN)C(N)=O),Unstimulated Basal GH Release from rat,peptide alone 3 μg i.v.,235 ± 43 ng/mL
same,Unstimulated Basal GH Release from rat,peptide alone 10 μg i.v.,178 ± 33 ng/mL
same,Unstimulated Basal GH Release from rat,peptide alone 30 μg i.v.,172 ± 15 ng/mL
same,Unstimulated Basal GH Release from rat,peptide alone 100 μg i.v.,185 ± 39 ng/mL
DAla-DβNal-Ala-Thr-DThr-Lys-NH2 ([dA][d2Nal]AT[dT]K-NH2; N-terminus assumed; SMILES C[C@H](NC(=O)[C@@H](Cc1ccc2ccccc2c1)NC(=O)[C@@H](C)N)C(=O)N[C@H](C(=O)N[C@@H](C(=O)N[C@@H](CCCCN)C(N)=O)[C@H](C)O)[C@@H](C)O),Unstimulated Basal GH Release from rat,peptide alone 3 μg i.v.,255 ± 38 ng/mL
same,Unstimulated Basal GH Release from rat,peptide alone 30 μg i.v.,288 ± 31 ng/mL
same,Unstimulated Basal GH Release from rat,peptide alone 100 μg i.v.,386 ± 57 ng/mL
DAla-DβNal-Ala-Trp-DPhe-Lys-NH2 ([dA][d2Nal]AW[dF]K-NH2) [reference compound],"Stimulated Control 0.3 μg, GH release from rat","Table 2, stimulator DAla-DβNal-Ala-Trp-DPhe-Lys-NH2 alone, 0.3 μg",2253 ± 252 ng/mL and 1412 ± 400 ng/mL
same,"Stimulated Control 1 μg, GH release from rat","Table 2, stimulator DAla-DβNal-Ala-Trp-DPhe-Lys-NH2 alone, 1 μg",3214 ± 276 ng/mL and 3105 ± 429 ng/mL and 2406 ± 288 ng/mL and 2825 ± 134 ng/mL and 3104 ± 429 ng/mL
DAla-DβNal-DAla-DTrp-Phe-Lys-NH2 ([dA][d2Nal][dA][dW]FK-NH2),Unstimulated Basal GH Release from rat,peptide alone 1 μg i.v.,184 ± 55 ng/mL
same,Unstimulated Basal GH Release from rat,peptide alone 3 μg i.v.,467 ± 201 ng/mL
same,Unstimulated Basal GH Release from rat,peptide alone 10 μg i.v.,244 ± 107 ng/mL
DAla-DβNal-DLys-DTrp-Phe-Lys-NH2 ([dA][d2Nal][dK][dW]FK-NH2; N-terminus assumed; SMILES C[C@@H](N)C(=O)N[C@H](Cc1ccc2ccccc2c1)C(=O)N[C@H](CCCCN)C(=O)N[C@H](Cc1c[nH]c2ccccc12)C(=O)N[C@@H](Cc1ccccc1)C(=O)N[C@@H](CCCCN)C(N)=O),Stimulated GH release from rat,[4],2884 ± 828 ng/mL
same,Stimulated GH release from rat,[5],1198 ± 114 ng/mL
same,Stimulated (S) GH release from rats,peptide 30 μg i.v.,2864 ± 828 ng/mL
same,Stimulated (S) GH release from rats,peptide 100 μg i.v.,1198 ± 114 ng/mL
same,Unstimulated GH release from rats,peptide 30 μg i.v.,323 ± 50 ng/mL
same,Unstimulated GH release from rats,peptide 100 μg i.v.,812 ± 6 ng/mL
DLys-DβNal-Ala-Trp-DPhe-Lys-NH2 ([dK][d2Nal]AW[dF]K-NH2; N-terminus assumed; SMILES C[C@H](NC(=O)[C@@H](Cc1ccc2ccccc2c1)NC(=O)[C@H](N)CCCCN)C(=O)N[C@@H](Cc1c[nH]c2ccccc12)C(=O)N[C@H](Cc1ccccc1)C(=O)N[C@@H](CCCCN)C(N)=O),Unstimulated GH release from rats,peptide 3 μg i.v.,616 ± 169 ng/mL
same,Unstimulated GH release from rats,peptide 10 μg i.v.,847 ± 17 ng/mL
same,Unstimulated GH release from rats,peptide 30 μg i.v.,629 ± 146 ng/mL
same,Unstimulated GH release from rats,peptide 100 μg i.v.,228 ± 45 ng/mL
DThr-DαNal-DTrp-DPro-Arg-NH2 ([dT][d1Nal][dW][dP]R-NH2; N-terminus assumed; SMILES C[C@H](O)[C@@H](N)C(=O)N[C@H](Cc1cccc2ccccc12)C(=O)N[C@H](Cc1c[nH]c2ccccc12)C(=O)N1CCC[C@@H]1C(=O)N[C@@H](CCCNC(=N)N)C(N)=O),Unstimulated Basal GH release from rats,[6],60 ± 5 ng/mL
same,Unstimulated Basal GH release from rats,[7],130 ± 24 ng/mL
same,Unstimulated Basal GH release from rats,[8],134 ± 31 ng/mL
DcyclohexylAla-Ala-Phe-DTrp-Lys-NH2 ([dCha]AF[dW]K-NH2; N-terminus assumed; SMILES C[C@H](NC(=O)[C@H](N)CC1CCCCC1)C(=O)N[C@@H](Cc1ccccc1)C(=O)N[C@H](Cc1c[nH]c2ccccc12)C(=O)N[C@@H](CCCCN)C(N)=O),Unstimulated Basal GH Release from rat,peptide alone 1 μg i.v.,199 ± 63 ng/mL
same,Unstimulated Basal GH Release from rat,peptide alone 3 μg i.v.,266 ± 68 ng/mL
same,Unstimulated Basal GH Release from rat,peptide alone 10 μg i.v.,199 ± 23 ng/mL
same,Unstimulated Basal GH Release from rat,peptide alone 30 μg i.v.,346 ± 82 ng/mL
same,Unstimulated Basal GH Release from rat,peptide alone 100 μg i.v.,350 ± 61 ng/mL
DcyclohexylAla-Ala-Trp-DPhe-NH2 ([dCha]AW[dF]-NH2; N-terminus assumed; SMILES C[C@H](NC(=O)[C@H](N)CC1CCCCC1)C(=O)N[C@@H](Cc1c[nH]c2ccccc12)C(=O)N[C@H](Cc1ccccc1)C(N)=O),Unstimulated Basal GH Release from rat,peptide alone 3 μg i.v.,181 ± 28 ng/mL
same,Unstimulated Basal GH Release from rat,peptide alone 10 μg i.v.,237 ± 18 ng/mL
same,Unstimulated Basal GH Release from rat,peptide alone 30 μg i.v.,354 ± 81 ng/mL
same,Unstimulated Basal GH Release from rat,peptide alone 100 μg i.v.,771 ± 76 ng/mL
DβNal-Ala-Trp-DPhe-Ala-NH2 ([d2Nal]AW[dF]A-NH2; N-terminus assumed; SMILES C[C@H](NC(=O)[C@@H](Cc1ccccc1)NC(=O)[C@H](Cc1c[nH]c2ccccc12)NC(=O)[C@H](C)NC(=O)[C@H](N)Cc1ccc2ccccc2c1)C(N)=O),Unstimulated Basal GH Release from rat,peptide alone 1 μg i.v.,623 ± 60 ng/mL
same,Unstimulated Basal GH Release from rat,peptide alone 3 μg i.v.,694 ± 70 ng/mL
same,Unstimulated Basal GH Release from rat,peptide alone 10 μg i.v.,654 ± 58 ng/mL
same,Unstimulated Basal GH Release from rat,peptide alone 30 μg i.v.,713 ± 71 ng/mL
DβNal-Ala-Trp-DPhe-Leu-NH2 ([d2Nal]AW[dF]L-NH2; N-terminus assumed; SMILES CC(C)C[C@H](NC(=O)[C@@H](Cc1ccccc1)NC(=O)[C@H](Cc1c[nH]c2ccccc12)NC(=O)[C@H](C)NC(=O)[C@H](N)Cc1ccc2ccccc2c1)C(N)=O),Unstimulated Basal GH Release from rat,peptide alone 3 μg i.v.,253 ± 79 ng/mL
same,Unstimulated Basal GH Release from rat,peptide alone 10 μg i.v.,277 ± 43 ng/mL
same,Unstimulated Basal GH Release from rat,peptide alone 30 μg i.v.,347 ± 66 ng/mL
same,Unstimulated Basal GH Release from rat,peptide alone 100 μg i.v.,645 ± 117 ng/mL
Glyψ[CH2NH]-DβNal-Ala-Trp-DPhe-Lys-NH2 (G[d2Nal]AW[dF]K-NH2; also: reduced Gly-ψ[CH2NH] bond between Gly1 and DβNal2),Stimulated GH release from rat,"Table 2, peptide antagonist 10 μg i.v. + stimulator DAla-DβNal-Ala-Trp-DPhe-Lys-NH2 0.3 μg",1112 ± 200 ng/mL
same,Stimulated GH release from rat,[3],2307 ± 176 ng/mL and 1842 ± 454 ng/mL
same,Stimulated GH release from rat,[1],578 ± 82 ng/mL
same,Stimulated GH release from rat,[4],890 ± 236 ng/mL and 1135 ± 140 ng/mL
Glyψ[CH2NH]-DβNal-DLys-Trp-DPhe-Lys-NH2 (G[d2Nal][dK]W[dF]K-NH2; also: reduced Gly-ψ[CH2NH] bond between Gly1 and DβNal2),Stimulated GH release from rat,"Table 2, peptide antagonist 1 μg i.v. + stimulator DAla-DβNal-Ala-Trp-DPhe-Lys-NH2 1 μg",2305 ± 320 ng/mL
same,Stimulated GH release from rat,[2],1990 ± 196 ng/mL
same,Stimulated GH release from rat,[3],1550 ± 284 ng/mL
same,Stimulated GH release from rat,[4],946 ± 133 ng/mL
same,Stimulated GH release from rat,[5],462 ± 122 ng/mL
